Numbering of substitutions follows the chain as printed.

Assay [1] concerns the target T1, Human VEGF-A 165 (human, UniProt P15692 207-395). In words: cell-based or functional assay.
For a further assay, the target named is T2, human VEGF111 (human, UniProt P15692-10 27-137).
T2 sequence (looked up): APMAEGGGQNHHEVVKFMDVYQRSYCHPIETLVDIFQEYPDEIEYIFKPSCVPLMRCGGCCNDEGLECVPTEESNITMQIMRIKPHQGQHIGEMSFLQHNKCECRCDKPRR
Description: cell-based or functional assay.

The target in assay [2] is T1, Human VEGF-A 165. Description: SPR (Biacore), antibody captured by anti-human Fc, hVEGF165 as analyte. Here is the method:
(§1) For example, approximately 9000 RU of goat anti-human Fc specific polyclonal antibody (Thermo Fisher Scientific Inc., Rockford, Ill.) diluted in 10 mM sodium acetate (pH 4.5) is directly immobilized across a CM5 research grade biosensor chip using a standard amine coupling kit according to manufacturer's instructions and procedures at 25 μg/ml. Unreacted moieties on the biosensor surface were blocked with ethanolamine. For kinetic analysis, rate equations derived from the 1:1 Langmuir binding model were fitted simultaneously to multiple antigen injections (using global fit analysis) with the use of Scrubber 2 (BioLogic Software), Biacore Biaevaluation 4.0.1 software or Biacore T100 Evaluation software. Purified antibodies or DVD-Ig molecules were diluted in running buffer for capture across goat anti-human Fc reaction surfaces. Antibodies or DVD-Ig molecules to be captured as a ligand (1 μg/ml) were injected over reaction matrices at a flow rate of 10 μl/minute. During the assay, all measurements were referenced against the capture surface alone (i.e., with no captured antibody or DVD-Ig molecule). […] The equilibrium dissociation constant KD (M) of the reaction between antibodies and the target antigen was then calculated from the kinetic rate constants by the following formula: KD=Koff/Kₒₙ. Binding was recorded as a function of time and kinetic rate constants were calculated.
Target sequence in this assay (P15692 other isoform, or with tags, fused parts or gaps): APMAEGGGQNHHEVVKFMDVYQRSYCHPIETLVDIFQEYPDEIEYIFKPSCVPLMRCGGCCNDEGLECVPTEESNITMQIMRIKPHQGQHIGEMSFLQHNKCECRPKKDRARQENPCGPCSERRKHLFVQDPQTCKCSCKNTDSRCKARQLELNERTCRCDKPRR

Assay [3] concerns the target T1, Human VEGF-A 165. In words: receptor competition ELISA: antibody titrated against biotinylated hVEGF165, binding to coated hVEGF-R2-Fc read. Here is the method: To identify molecules that could block the binding of hVEGF₁₆₅ to the hVEGF-R2 (KDR/Flk-1) receptor, a competition ELISA was performed. […] Plates were then washed four times with wash buffer (TBS, 0.05% Tween-20) and blocked with Superblock blocking buffer (Thermo Scientific, cat#37535). […] The pre-incubated sample/hVEGF₁₆₅ complex was added to the coated plate at 50 μL in duplicate and incubated for 30 minutes at 25° C. with shaking. Following incubation, plates were washed four times with wash buffer. Streptavidin-polyHRP-40 (Fitzgerald cal#65r-s104phrp) was diluted in assay diluent (10% Superblock containing 0.05% surfactamps) and added to plates (50 μL) for 45 minutes at 25° C. with shaking. Plates were washed four times with wash buffer and developed with the addition of Enhanced K-blue TMB substrate (Neogen cat#308177). The reaction was stopped with 2N sulfuric acid (VWR, cat# BDH3500-1) and the absorbance was read at 450 nm-570 nm. A decrease in observed optical density indicates the test molecule is blocking the hVEGF₁₆₅ binding to the hVEGF-R2-Fc. Data was analyzed using Softmax Pro 4.8 software and IC₅₀ values calculated using a sigmoidal dose response (variable slope) fit in GraphPad Prism 5.

For a further assay, the target named is T3, rat PDGF-B (PR-1645048) (rat, UniProt Q05028 74-182).
T3 construct: Lot 2235300; also called rat PDGF-BB; ratPDGF-BB
T3 sequence (Q05028 74-182 limits assumed): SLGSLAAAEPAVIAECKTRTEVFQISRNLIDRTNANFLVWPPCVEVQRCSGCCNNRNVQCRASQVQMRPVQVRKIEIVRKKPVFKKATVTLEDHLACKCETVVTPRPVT
Description: SPR (Biacore), antibody captured by anti-human Fc, antigen injected. The method, then: as §1, with “Unreacted” for “For example, approximately 9000 RU of goat anti-human Fc specific polyclonal antibody (Thermo Fisher Scientific Inc., Rockford, Ill.) diluted in 10 mM sodium acetate (pH 4.5) is directly immobilized across a CM5 research grade biosensor chip using a standard amine coupling kit according to manufacturer's instructions and procedures at 25 μg/ml. Unreacted”, “calculated. In this assay, on-rates as fast as 10⁶M⁻¹s⁻¹ and off-rates as slow as 10⁻⁶ s⁻¹ could be measured.” for “calculated.”

The target of assay [4] is recombinant rat PDGF-BB (rat, UniProt Q05028 74-182). In words: cell-based or functional assay.
Target sequence in this assay (Q05028 74-182 limits assumed): as above
In assay [5] the target is T4, recombinant human VEGF-R2-Fc (human, UniProt P35968 20-764).
T4 construct: Bought Fc fusion (R&D Systems cat#357-KD); also called hVEGFR2-Fc; VEGF-R2 (KDR/Flk-1); not shown: Fc part of the bought fusion protein
T4 sequence (P35968 20-764 limits assumed): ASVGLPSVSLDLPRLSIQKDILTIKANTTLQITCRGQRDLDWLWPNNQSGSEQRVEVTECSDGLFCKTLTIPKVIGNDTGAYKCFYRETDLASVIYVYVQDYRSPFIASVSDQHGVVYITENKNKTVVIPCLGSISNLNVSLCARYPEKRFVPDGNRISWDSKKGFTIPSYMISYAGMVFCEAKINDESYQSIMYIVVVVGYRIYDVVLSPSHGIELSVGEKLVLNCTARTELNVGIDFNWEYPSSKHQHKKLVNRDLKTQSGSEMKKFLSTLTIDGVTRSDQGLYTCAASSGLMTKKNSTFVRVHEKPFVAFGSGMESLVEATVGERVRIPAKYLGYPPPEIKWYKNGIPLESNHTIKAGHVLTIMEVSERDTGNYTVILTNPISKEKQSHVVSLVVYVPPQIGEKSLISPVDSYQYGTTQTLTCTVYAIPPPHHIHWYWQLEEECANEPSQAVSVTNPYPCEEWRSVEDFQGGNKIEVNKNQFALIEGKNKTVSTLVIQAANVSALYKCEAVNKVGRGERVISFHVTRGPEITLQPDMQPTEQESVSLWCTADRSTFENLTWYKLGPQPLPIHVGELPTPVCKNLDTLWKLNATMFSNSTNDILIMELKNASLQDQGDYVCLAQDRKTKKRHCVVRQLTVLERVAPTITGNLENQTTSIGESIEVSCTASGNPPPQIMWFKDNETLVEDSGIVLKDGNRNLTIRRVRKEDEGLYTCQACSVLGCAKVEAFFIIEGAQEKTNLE
Description: competition ELISA: antibody added to coated hVEGF-R2-Fc, then biotinylated hVEGF165 (competitor). Here is the method: To identify molecules which could block the binding of VEGF-R2 (KDR/Flk-1) to hVEGF₁₆₅, a competition ELISA was performed. […] Plates were then washed four times with wash buffer (TBS, 0.05% Tween-20) and blocked with Superblock blocking buffer (Thermo Scientific, cat#37535). […] The samples were added to wells and incubated for 30 minutes at 25° C. with shaking. […] Following incubation, plates were washed four times with wash buffer. Streptavidin-polyHRP-40 (Fitzgerald cat#65r-s104phrp) was diluted in assay diluent (10% Superblock containing 0.05% surfactamps) and added to plates (50 μL) for 45 minutes at 25° C. with shaking. Plates were washed four times with wash buffer and developed with the addition of Enhanced K-blue TMB substrate (Neogen cat#308177). The reaction was stopped with 2N sulfuric acid (VWR, cat# BDH3500-1) and the absorbance was read at 450 nm-570 nm. A decrease in observed optical density indicates the test molecule is blocking the human VEGF-R2-Fc binding to hVEGF₁₆₅. Data was analyzed using Softmax Pro 4.8 software and IC₅₀ values calculated using a sigmoidal dose response (variable slope) fit in GraphPad Prism 5.
Humanized anti-VEGFR2 antibodies were tested for potency against hVEGFR2 in functional assay formats. The antibodies were characterized for the ability to block VEGFR2 binding to hVEGF₁₆₅ in a competition ELISA format (Example 1.22).

For assay [6], the target named is T5, recombinant human PDGF-BB (human, UniProt P01127 82-190, biotin-labelled in the binding and competition ELISAs (sites not given)). Description: cell-based or functional assay.
T5 sequence (P01127 82-190 limits assumed): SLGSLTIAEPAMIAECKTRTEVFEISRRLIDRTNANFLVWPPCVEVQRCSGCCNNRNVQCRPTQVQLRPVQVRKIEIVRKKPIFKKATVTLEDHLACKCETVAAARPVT
Assay [7] deals with recombinant rat PDGF-BB (rat, UniProt Q05028 74-182). Description: cell-based or functional assay. The source holds these as a separate data set.
Target sequence in this assay (Q05028 74-182 limits assumed): as the sequence (Q05028 74-182 limits assumed) above
Assay [8] has as its target T5, recombinant human PDGF-BB. In words: receptor competition ELISA: antibody pre-incubated with biotin-hPDGF-BB, binding to coated hPDGF-Rβ-Fc. The method, then:
(§2) Plates were then washed four times with wash buffer (TBS, 0.05% Tween-20) and blocked with Superblock blocking buffer (Thermo Scientific, cat#37535). During the blocking step, supernatants, antibodies, benchmark compounds or DVD-Ig were diluted in assay diluent (10% Superblock containing 0.05% surfactamps) and an eight point titration of each sample molecule was performed. […] Following incubation, plates were washed four times with wash buffer. Detection reagent Streptavidin-polyHRP-40 (Fitzgerald, cat#65r-s104phrp) was diluted in assay diluent and added to plates (50 μL) for 45 minutes at 25° C. with shaking. Plates were washed four times with wash buffer and developed with the addition of Enhanced K-blue TMB substrate (Neogen, cat#308177). The reaction was stopped with 2N sulfuric acid (VWR, cat# BDH3500-1) and the absorbance was read at 450 nm-570 nm. […] Data was analyzed using Softmax Pro 4.8 software and IC₅₀ values calculated using a sigmoidal dose response (variable slope) fit in GraphPad Prism 5.

Assay [9] has as its target T6, recombinant human PDGF-BB (human, UniProt P01127 82-190). Description: cell-based or functional assay.
The target of assay [10] is T6, recombinant human PDGF-BB. Description: competition ELISA: blocks biotin-hPDGF-BB binding to coated hPDGF-Rβ-Fc. The method, then: as §2

T6 sequence (P01127 82-190 limits assumed): as the sequence (P01127 82-190 limits assumed) above

B1: chBEW-6C2 (antibody, human IgG1, kappa, L234A L235A, V domains shown)
VH: EVQLVESGGGLVQPGSSLKLSCAASGFTFSYYGMHWIRQAPKKGLEWMALIYYDSSKMYYADSVKGRFTISRDNSKNTLYLEMNSLRSEDTAMYYCAAGGTAPVYWGQGVMVTVSS
VL: NIQLTQSPSLLSASVGDRVTLSCKGSQNIANYLAWYQQKLGEAPKLLIYNTDSLQTGIPSRFSGSGSGTDYTLTISSLQPEDVATYFCYQSNNGYTFGAGTKLELRR
With B1, in the assay with Human VEGF-A 165 [1], the “huVEGF-A165 Neutralization Potency in HMVEC-d cells” value is 0.031 nM. Moreover, in the assay with human VEGF111, the “Phospho-Tyr1054/huVEGF-A111 Neuterlization” value was found to be 0.435 nM. In the assay with Human VEGF-A 165 [2], the Kd turned out to be 0.0088 nM and the on-rate (kon) came to 4.9e+06 M⁻¹ s⁻¹. In the assay with Human VEGF-A 165 [3], this molecule gave an IC50 of 0.148 nM.

B2: CL-33675 (antibody, V domains shown)
VH: EVTLRESGPALVKPTQTLTLTCTFSGFSLSTYGMGVGWIRQPPGKALEWLANIWWDDDKYYNPSLKNRLTISKDTSKNQVVLTMTNMDPVDTATYYCARIESSGPKYSFDYWGQGTMVTVSS
VL: EIVLTQSPGTLSLSPGERATLSCRASSGSIWYSFVSWYQQKPGQAPRLLIYADDQRASGIPDRFSGSGSGTDFTLTISRLEPEDFAVYYCQSYGINIDVVFGGGTKVEIK
notes: Converted to IgG; also called CL-33675-IgG; PR-1593725
On to B2, for which, in the assay with rat PDGF-B (PR-1645048), the Kd is no more than 0.00058 nM, the koff came out at 5.8e-06 s⁻¹ and the kon is no less than 1e+07 M⁻¹ s⁻¹.

B3: BDI-7H10-D8 (antibody, IgG2b, V domains shown)
VH: EVKLQQSGDELVRPGASVKMSCKASGYTFTDYAMHWVKQSPGQGLEWIGTIIPLIDTTSYNQKFKGKATLTADTSSNTAYMELSRLTSEDSAVYYCARDWDNNWGYFDYWGQGVMVTVSS
VL: DVVLTQTPVSLSVTLGDQASISCRSSQSLEYSDGYTYLEWYLQKPGQSPQLLIYGVSNRFSGVPDRFIGSGSGTDFTLKISRVEPEDLGVYYCFQATHDPLTFGSGTKLEIK
With B3, in the assay with recombinant rat PDGF-BB [4], the “Phospho-Tyr751/ratPDGF-BB Neutralization” value was greater than 5 nM.

B4: hBCU-6B1.4 (antibody, V domains shown)
VH: EVQLVQSGAEVKKPGASVKVSCKASGYTFTNYGMYWVRQAPGQGLEFMGWINTETGQPTYADDFKGRFTFTLDTSTSTAYMELRSLRSDDTAVYYCARLGNNYGIWFAYWGQGTLVTVSS
VL: DIQMTQSPSSLSASVGDRVTITCRASDDLYSTLAWYQQKPGKSPKLLIFDANRLAAGVPSRFSGSGSGTDYTLTISSLQPEDVATYFCQQYNKFPWTFGGGTKVEIK
notes: Humanized anti-human VEGFR II IgG from pHybE expression vectors
Take B4: the 50% inhibitory concentration (IC50) in assay [5] worked out at 0.335 nM.

B5: chBDI-5G2 (antibody, human IgG1, V domains shown)
VH: QVTLKESGPGILQPSQTLSLTCTFSGFSLSTFGMGVGWIRQPSGKGLEWLANIWWDDDKYYNPSLKNRLTISKDTSNSQAFLEITNVDTADTATYYCARISTGISSYYVMDAWGQGASVTVSS
VL: QFTLTQPKSVSGSLRSTITIPCERSSGDIGDTYVSWYQQHLGRPPINVIYGNDQRPSEVSDRFSGSIDSSSNSASLTITNLQMDDEADYFCQSYDSDIDIVFGGGTKLTVL
notes: also called chimeric BDI-5G2-F9
As to B5, in [6], the “huPDGF-BB Neutralization Potency (nM) in NIH-3T3 Cells” value (“huPDGF-BB Neutralization Potency (nM)” for short) stood at 0.181 nM. In the assay with recombinant rat PDGF-BB [7], the “ratPDGF-BB Neutralization Potency (nM) in NIH-3T3 Cells” value amounted to 0.118 nM. The IC50 in assay [8] was 1.08 nM.

B6: BDI-9E8-E7 (antibody, IgG2b, V domains shown)
VH: QVTLKESGPGILQPSQTLSLTCTFSGFSLSTYGMGVGWIRQPSGKGLEWLANIWWDDDKYYNPSLKNRLTISKDTSNNQAFLKITNVDTADTATYYCARIESIGTTYSFDYWGQGVMVTVSS
VL: B5 VL with T32S, G51A, N52D, S96I, D97N
notes: Rat hybridoma monoclonal antibody
B6: in assay [9], the “Phospho-Tyr751/hPDGF-BB Neutralization” value worked out at 0.629 nM and the “huPDGF-BB Neutralization Potency (nM)” value turned out to be 0.195 nM. Besides, in the assay with recombinant rat PDGF-BB [4], the “Phospho-Tyr751/ratPDGF-BB Neutralization” value came out at 0.333 nM. The IC50 in [10] amounted to 1.12 nM.

B7: BDI-5H1-F6 (antibody, IgG2b, V domains shown)
VH: B5 VH
VL: B5 VL
notes: as for B6
Consider B7, for which, in assay [9], the “Phospho-Tyr751/hPDGF-BB Neutralization” value came to 0.884 nM and the “huPDGF-BB Neutralization Potency (nM)” value came to 0.371 nM. For the same molecule, the “Phospho-Tyr751/ratPDGF-BB Neutralization” value with recombinant rat PDGF-BB [4] came to 0.319 nM. Also, in assay [10], the IC50 came out at 0.528 nM.

The values are drawn from US20170015742A1 (published 2017).
